# Measured values: patent US20150065381A1
# Values joined by “and” are separate entries in the source; they are usually repeats but may differ in a detail not shown here. Equal values may be shown once.
# How the values were obtained:
# [1] = molecular target: HIV-1 envelope clone G-011.c02 (multiclade gp160 clone panel) (HIV-1); assay: capture ELISA, original data
# [2] = molecular target: HIV-1 envelope clone G-011.c05 (multiclade gp160 clone panel) (HIV-1); assay: capture ELISA, original data
# [3] = molecular target: HIV-1 envelope of gp160 clone AG-010.c11 (HIV-1); assay: capture ELISA, original data
# [4] = molecular target: HIV-1 envelope of gp160 clone AG-010.c14 (HIV-1); assay: capture ELISA, original data
# [5] = molecular target: HIV-1 envelope of gp160 clone B-Acute-008.c11 (HIV-1); assay: capture ELISA, original data
# [6] = molecular target: HIV-1 envelope of gp160 clone B-Acute-010.c08 (HIV-1); assay: capture ELISA, original data
# [7] = molecular target: HIV-1 envelope of gp160 clone B-Acute-010.c09 (HIV-1); assay: capture ELISA, original data
# [8] = molecular target: HIV-1 envelope of gp160 clone B-Chronic-014.c02 (HIV-1); assay: capture ELISA, original data
# [9] = molecular target: HIV-1 JRCSF envelope (HIV-1) (UniProt P20871); assay: capture ELISA, plate 1, mAb 0.8 ug/ml
# [10] = molecular target: HIV-1 envelope clone BF-002.c08 (multiclade gp160 clone panel) (HIV-1); assay: capture ELISA, plate 1, mAb 0.8 ug/ml
# [11] = molecular target: HIV-1 envelope clone F1-002.c11 (multiclade gp160 clone panel) (HIV-1); assay: capture ELISA, plate 1, mAb 0.8 ug/ml
# [12] = molecular target: HIV-1 envelope of gp160 clone AG-010.c11 (HIV-1); assay: capture ELISA, plate 1, mAb 0.8 ug/ml
# [13] = molecular target: HIV-1 envelope of gp160 clone AG-010.c14 (HIV-1); assay: capture ELISA, plate 1, mAb 0.8 ug/ml
# [14] = molecular target: HIV-1 envelope of gp160 clone B-Acute-009-c08 (HIV-1); assay: capture ELISA, plate 1, mAb 0.8 ug/ml
# [15] = molecular target: HIV-1 envelope of gp160 clone B-Acute-010.c08 (HIV-1); assay: capture ELISA, plate 1, mAb 0.8 ug/ml
# [16] = molecular target: HIV-1 16055 envelope (HIV-1); assay: capture ELISA, plate 1, mAb 2.5 ug/ml
# [17] = molecular target: HIV-1 JRCSF envelope (HIV-1) (UniProt P20871); assay: capture ELISA, plate 1, mAb 2.5 ug/ml
# [18] = molecular target: HIV-1 JRFL envelope (HIV-1); assay: capture ELISA, plate 1, mAb 2.5 ug/ml
# [19] = molecular target: HIV-1 envelope clone BF-002.c05 (multiclade gp160 clone panel) (HIV-1); assay: capture ELISA, plate 1, mAb 2.5 ug/ml
# [20] = molecular target: HIV-1 envelope clone BF-002.c08 (multiclade gp160 clone panel) (HIV-1); assay: capture ELISA, plate 1, mAb 2.5 ug/ml
# [21] = molecular target: HIV-1 envelope clone F1-002.c11 (multiclade gp160 clone panel) (HIV-1); assay: capture ELISA, plate 1, mAb 2.5 ug/ml
# [22] = molecular target: HIV-1 envelope clone F1-002.c16 (multiclade gp160 clone panel) (HIV-1); assay: capture ELISA, plate 1, mAb 2.5 ug/ml
# [23] = molecular target: HIV-1 envelope clone G-011.c02 (multiclade gp160 clone panel) (HIV-1); assay: capture ELISA, plate 1, mAb 2.5 ug/ml
# [24] = molecular target: HIV-1 envelope clone G-011.c05 (multiclade gp160 clone panel) (HIV-1); assay: capture ELISA, plate 1, mAb 2.5 ug/ml
# [25] = molecular target: HIV-1 envelope of gp160 clone AG-010.c11 (HIV-1); assay: capture ELISA, plate 1, mAb 2.5 ug/ml
# [26] = molecular target: HIV-1 envelope of gp160 clone AG-010.c14 (HIV-1); assay: capture ELISA, plate 1, mAb 2.5 ug/ml
# [27] = molecular target: HIV-1 envelope of gp160 clone B-Acute-008.c11 (HIV-1); assay: capture ELISA, plate 1, mAb 2.5 ug/ml
# [28] = molecular target: HIV-1 envelope of gp160 clone B-Acute-009-c08 (HIV-1); assay: capture ELISA, plate 1, mAb 2.5 ug/ml
# [29] = molecular target: HIV-1 envelope of gp160 clone B-Acute-010.c08 (HIV-1); assay: capture ELISA, plate 1, mAb 2.5 ug/ml
# [30] = molecular target: HIV-1 envelope of gp160 clone B-Acute-010.c09 (HIV-1); assay: capture ELISA, plate 1, mAb 2.5 ug/ml
# [31] = molecular target: HIV-1 envelope of gp160 clone B-Chronic-014.c02 (HIV-1); assay: capture ELISA, plate 1, mAb 2.5 ug/ml
# [32] = molecular target: BG505 envelope (gp120 monomer released from lysed pseudovirus) (HIV-1); assay: antigen capture ELISA, mAb 0.3 ug/ml, plate 1
# [33] = molecular target: aMLV envelope (from lysed pseudovirus); assay: antigen capture ELISA, mAb 0.3 ug/ml, plate 1
# [34] = molecular target: BG505 envelope (gp120 monomer released from lysed pseudovirus) (HIV-1); assay: antigen capture ELISA, mAb 0.8 ug/ml, plate 1
# [35] = molecular target: aMLV envelope (from lysed pseudovirus); assay: antigen capture ELISA, mAb 0.8 ug/ml, plate 1
# [36] = molecular target: BG505 envelope (gp120 monomer released from lysed pseudovirus) (HIV-1); assay: antigen capture ELISA, mAb 2.5 ug/ml, plate 2
# [37] = molecular target: aMLV envelope (from lysed pseudovirus); assay: antigen capture ELISA, mAb 2.5 ug/ml, plate 2
# [38] = molecular target: BG505 envelope (gp120 monomer released from lysed pseudovirus) (HIV-1); assay: antigen capture ELISA, mAb 7.5 ug/ml, plate 2
# [39] = molecular target: aMLV envelope (from lysed pseudovirus); assay: antigen capture ELISA, mAb 7.5 ug/ml, plate 2
Substance,ELISA OD [9],ELISA OD [12],ELISA OD [13],ELISA OD [14],ELISA OD [15],ELISA OD [17],ELISA OD [23],ELISA OD [24],ELISA OD [25],ELISA OD [26],ELISA OD [27],ELISA OD [28],ELISA OD [29],ELISA OD [30],ELISA OD [31],ELISA OD [32],ELISA OD [33],ELISA OD [34],ELISA OD [35],ELISA OD [36],also measured
PGT145 (antibody),0.058 OD and 0.056 OD,0.054 OD,0.054 OD,0.062 OD,0.114 OD,0.071 OD and 0.061 OD,0.068 OD,0.087 OD,0.06 OD,0.065 OD,0.101 OD,0.078 OD,0.277 OD,0.068 OD,0.064 OD,0.066 OD,0.057 OD and 0.116 OD,0.066 OD,0.056 OD and 0.073 OD,0.077 OD,ELISA OD (original data) [1]: 0.077 OD; ELISA OD (original data) [2]: 0.301 OD; ELISA OD [3]: 0.101 OD; ELISA OD [4]: 0.081 OD; ELISA OD [5]: 0.178 OD; ELISA OD [6]: 0.211 OD; ELISA OD [7]: 0.075 OD; ELISA OD [8]: 0.077 OD; ELISA OD [10]: 0.054 OD; ELISA OD [11]: 0.067 OD; ELISA OD [16]: 0.115 OD and 0.06 OD; ELISA OD [18]: 0.06 OD; ELISA OD [19]: 0.22 OD; ELISA OD [20]: 0.066 OD; ELISA OD [21]: 0.089 OD; ELISA OD [22]: 0.316 OD; ELISA OD [37]: 0.07 OD and 0.066 OD; ELISA OD [38]: 0.104 OD; ELISA OD [39]: 0.108 OD and 0.079 OD
PG9 (antibody),0.24 OD and 0.235 OD,0.506 OD,0.67 OD,0.076 OD,0.161 OD,0.356 OD and 0.338 OD,0.068 OD,0.308 OD,0.759 OD,0.988 OD,0.281 OD,0.095 OD,0.313 OD,0.133 OD,1.79 OD,0.162 OD,0.068 OD and 0.067 OD,0.261 OD,0.091 OD and 0.06 OD,0.346 OD,ELISA OD (original data) [1]: 0.068 OD; ELISA OD (original data) [2]: 1.25 OD; ELISA OD [3]: 1.06 OD; ELISA OD [4]: 3.69 OD; ELISA OD [5]: 0.75 OD; ELISA OD [6]: 0.547 OD; ELISA OD [7]: 0.685 OD; ELISA OD [8]: 2.42 OD; ELISA OD [16]: 0.364 OD and 0.308 OD; ELISA OD [18]: 0.068 OD and 0.077 OD; ELISA OD [37]: 0.059 OD and 0.053 OD; ELISA OD [38]: 0.428 OD; ELISA OD [39]: 0.079 OD and 0.071 OD
PGV04 (antibody),0.896 OD and 1.04 OD,0.101 OD,0.15 OD,0.079 OD,0.631 OD,1.53 OD and 1.78 OD,0.601 OD,0.256 OD,0.136 OD,0.241 OD,0.059 OD,0.123 OD,1.34 OD,1.73 OD,4 OD,0.45 OD,0.052 OD and 0.057 OD,0.745 OD,0.053 OD and 0.117 OD,1.04 OD,ELISA OD [10]: 1.27 OD; ELISA OD [11]: 0.079 OD; ELISA OD [19]: 4 OD; ELISA OD [20]: 2.2 OD; ELISA OD [21]: 0.145 OD; ELISA OD [22]: 0.242 OD; ELISA OD [37]: 0.085 OD and 0.089 OD; ELISA OD [38]: 1.37 OD; ELISA OD [39]: 0.123 OD
PG16 (antibody),0.169 OD and 0.154 OD,0.177 OD,0.491 OD,0.058 OD,0.132 OD,0.206 OD and 0.164 OD,0.065 OD,0.126 OD,0.216 OD,0.485 OD,0.189 OD,0.074 OD,0.186 OD,0.124 OD,0.398 OD,0.067 OD,0.053 OD and 0.096 OD,0.165 OD,0.073 OD and 0.056 OD,0.103 OD,ELISA OD [10]: 0.134 OD; ELISA OD [11]: 0.146 OD; ELISA OD [16]: 0.185 OD and 0.131 OD; ELISA OD [18]: 0.085 OD and 0.088 OD; ELISA OD [19]: 0.639 OD; ELISA OD [20]: 0.146 OD; ELISA OD [21]: 0.142 OD; ELISA OD [22]: 0.129 OD; ELISA OD [37]: 0.067 OD and 0.069 OD; ELISA OD [38]: 0.12 OD; ELISA OD [39]: 0.102 OD and 0.081 OD
